Columns and labels:
[1] = molecular target: gp120 (isolate 92BR020) (HIV-1 isolate 92BR020); assay: ELISA on gp120 (isolate 92BR020), buffer pH 5.5
[2] = molecular target: gp120 (isolate 92BR020) (HIV-1 isolate 92BR020); assay: ELISA on gp120 (isolate 92BR020), buffer pH 6
[3] = molecular target: BG505 N276A
[4] = molecular target: JR-CSF S199A
[5] = molecular target: BG505 K121A
[6] = molecular target: BG505 L179A
[7] = molecular target: BG505 D474A
[8] = molecular target: BG505 L369A
[9] = molecular target: BG505 R476A
[10] = molecular target: JR-CSF T198A
[11] = molecular target: JR-CSF D474A
[12] = molecular target: JR-CSF M373A
[13] = molecular target: JR-CSF G471A
[14] = molecular target: JR-CSF R476A
[15] = molecular target: JR-CSF S365A
[16] = molecular target: BG505 N363A
[17] = molecular target: BG505 N279A
[18] = molecular target: BG505 T373A
[19] = molecular target: JR-CSF P369A
[20] = molecular target: BG505 G471A
[21] = molecular target: JR-CSF D279A
[22] = molecular target: JR-CSF N283A
[23] = molecular target: JR-CSF Env on JR-CSF pseudovirus
[24] = molecular target: BG505 T372A
[25] = molecular target: BG505 N262A
[26] = molecular target: BG505 N332T
[27] = molecular target: BG505 S364A
[28] = molecular target: JR-CSF V372A
[29] = molecular target: BG505 Env on BG505 pseudovirus (HIV isolate BG505)
[30] = molecular target: BG505 S365A
[31] = molecular target: JR-CSF K207A
[32] = molecular target: JR-CSF N276A
[33] = molecular target: BG505 K282A
[34] = molecular target: JR-CSF K282A
[35] = molecular target: JR-CSF N362A
[36] = molecular target: JR-CSF S199A; assay: ELISA, gp120 captured from lysed virions
[37] = molecular target: BG505 K121A; assay: ELISA, gp120 captured from lysed virions
[38] = molecular target: BG505 L179A; assay: ELISA, gp120 captured from lysed virions
[39] = molecular target: JR-CSF gp120 captured from lysed virions (HIV isolate JR-CSF) (UniProt P20871); assay: ELISA, gp120 captured from lysed virions
[40] = molecular target: JR-CSF D368A; assay: ELISA, gp120 captured from lysed virions
[41] = molecular target: BG505 R476A; assay: ELISA, gp120 captured from lysed virions
[42] = molecular target: JR-CSF T372A; assay: ELISA, gp120 captured from lysed virions
[43] = molecular target: JR-CSF T198A; assay: ELISA, gp120 captured from lysed virions
[44] = molecular target: JR-CSF E370A; assay: ELISA, gp120 captured from lysed virions
[45] = molecular target: BG505 V371A; assay: ELISA, gp120 captured from lysed virions
[46] = molecular target: JR-CSF G471A; assay: ELISA, gp120 captured from lysed virions
[47] = molecular target: JR-CSF R476A; assay: ELISA, gp120 captured from lysed virions
[48] = molecular target: JR-CSF S365A; assay: ELISA, gp120 captured from lysed virions
[49] = molecular target: JR-CSF N262A; assay: ELISA, gp120 captured from lysed virions
[50] = molecular target: BG505 G472A; assay: ELISA, gp120 captured from lysed virions
[51] = molecular target: JR-CSF N279A; assay: ELISA, gp120 captured from lysed virions
[52] = molecular target: BG505 N283A; assay: ELISA, gp120 captured from lysed virions
[53] = molecular target: JR-CSF T373A; assay: ELISA, gp120 captured from lysed virions
[54] = molecular target: BG505 N363A; assay: ELISA, gp120 captured from lysed virions
[55] = molecular target: BG505 N197A; assay: ELISA, gp120 captured from lysed virions
[56] = molecular target: BG505 G471A; assay: ELISA, gp120 captured from lysed virions
[57] = molecular target: JR-CSF N283A; assay: ELISA, gp120 captured from lysed virions
[58] = molecular target: BG505 G367A; assay: ELISA, gp120 captured from lysed virions
[59] = molecular target: JR-CSF G366A; assay: ELISA, gp120 captured from lysed virions
[60] = molecular target: JR-CSF G472A; assay: ELISA, gp120 captured from lysed virions
[61] = molecular target: BG505 G366A; assay: ELISA, gp120 captured from lysed virions
[62] = molecular target: JR-CSF K207A; assay: ELISA, gp120 captured from lysed virions
[63] = molecular target: JR-CSF G473A; assay: ELISA, gp120 captured from lysed virions
[64] = molecular target: JR-CSF N276A; assay: ELISA, gp120 captured from lysed virions
[65] = molecular target: BG505 K282A; assay: ELISA, gp120 captured from lysed virions
[66] = molecular target: JR-CSF N362A; assay: ELISA, gp120 captured from lysed virions
[67] = molecular target: BG505 L369A; assay: ELISA, gp120 captured from lysed virions
[68] = molecular target: BG505 E370A; assay: ELISA, gp120 captured from lysed virions
[69] = molecular target: BG505 N279A; assay: ELISA, gp120 captured from lysed virions
[70] = molecular target: BG505 T373A; assay: ELISA, gp120 captured from lysed virions
[71] = molecular target: BG505 T372A; assay: ELISA, gp120 captured from lysed virions
[72] = molecular target: BG505 N332T; assay: ELISA, gp120 captured from lysed virions
[73] = molecular target: BG505 S364A; assay: ELISA, gp120 captured from lysed virions
[74] = molecular target: JR-CSF V371A; assay: ELISA, gp120 captured from lysed virions
[75] = molecular target: BG505 S365A; assay: ELISA, gp120 captured from lysed virions
[76] = molecular target: BG505 gp120 captured from lysed virions (HIV isolate BG505); assay: ELISA, gp120 captured from lysed virions

Substance: 12A12 (antibody)
- EC50 (read off the curve) [1]: 0.4 µg/mL
- EC50 (read off the curve) [2]: 0.4 µg/mL
- IC50, pseudovirus neutralization [3]: 0.003 µg/mL
- IC50, pseudovirus neutralization [4]: 0.032 µg/mL
- IC50, pseudovirus neutralization [5]: 0.053 µg/mL
- IC50, pseudovirus neutralization [6]: 0.056 µg/mL
- IC50, pseudovirus neutralization [7]: 0.02 µg/mL
- IC50, pseudovirus neutralization [8]: 0.03 µg/mL
- IC50, pseudovirus neutralization [9]: 0.026 µg/mL
- IC50, pseudovirus neutralization [10]: 0.622 µg/mL
- IC50, pseudovirus neutralization [11]: 0.075 µg/mL
- IC50, pseudovirus neutralization [12]: 0.134 µg/mL
- IC50, pseudovirus neutralization [13]: 0.114 µg/mL
- IC50, pseudovirus neutralization [14]: 0.082 µg/mL
- IC50, pseudovirus neutralization [15]: 0.18 µg/mL
- IC50, pseudovirus neutralization [16]: 0.038 µg/mL
- IC50, pseudovirus neutralization [17]: 0.058 µg/mL
- IC50, pseudovirus neutralization [18]: 0.039 µg/mL
- IC50, pseudovirus neutralization [19]: 0.205 µg/mL
- IC50, pseudovirus neutralization [20]: 0.029 µg/mL
- IC50, pseudovirus neutralization [21]: > 50 µg/mL
- IC50, pseudovirus neutralization [22]: 0.219 µg/mL
- IC50, pseudovirus neutralization [23]: 0.219 µg/mL
- IC50, pseudovirus neutralization [24]: 0.037 µg/mL
- IC50, pseudovirus neutralization [25]: 0.017 µg/mL
- IC50, pseudovirus neutralization [26]: 0.031 µg/mL
- IC50, pseudovirus neutralization [27]: 0.032 µg/mL
- IC50, pseudovirus neutralization [28]: 0.214 µg/mL
- IC50, pseudovirus neutralization [29]: 0.02 µg/mL
- IC50, pseudovirus neutralization [30]: 0.057 µg/mL
- IC50, pseudovirus neutralization [31]: 0.383 µg/mL
- IC50, pseudovirus neutralization [32]: 2.72 µg/mL
- IC50, pseudovirus neutralization [33]: 0.04 µg/mL
- IC50, pseudovirus neutralization [34]: 2.33 µg/mL
- IC50, pseudovirus neutralization [35]: 0.11 µg/mL

Substance: PGT121 (antibody)
- EC50 [36]: 1.91 µg/mL
- EC50 [37]: 1 µg/mL
- EC50 [38]: 0.5 µg/mL
- EC50 [39]: 1.33 µg/mL
- EC50 [40]: 0.942 µg/mL
- EC50 [41]: 1 µg/mL
- EC50 [42]: 0.698 µg/mL
- EC50 [43]: 0.604 µg/mL
- EC50 [44]: 0.933 µg/mL
- EC50 [45]: 1.4 µg/mL
- EC50 [46]: 0.619 µg/mL
- EC50 [47]: 0.984 µg/mL
- EC50 [48]: 0.935 µg/mL
- EC50 [49]: 0.947 µg/mL
- EC50 [50]: 1.4 µg/mL
- EC50 [51]: 0.535 µg/mL
- EC50 [52]: 3.4 µg/mL
- EC50 [53]: 0.643 µg/mL
- EC50 [54]: 2.3 µg/mL
- EC50 [55]: 1.3 µg/mL
- EC50 [56]: 2.5 µg/mL
- EC50 [57]: 0.615 µg/mL
- EC50 [58]: 4 µg/mL
- EC50 [59]: 0.489 µg/mL
- EC50 [60]: 0.664 µg/mL
- EC50 [61]: 0.9 µg/mL
- EC50 [62]: 0.437 µg/mL
- EC50 [63]: 0.46 µg/mL
- EC50 [64]: 1.25 µg/mL
- EC50 [65]: 1.3 µg/mL
- EC50 [66]: 0.747 µg/mL
- IC50, pseudovirus neutralization [4]: 0.03 µg/mL
- IC50, pseudovirus neutralization [5]: 0.026 µg/mL
- IC50, pseudovirus neutralization [7]: 0.023 µg/mL
- IC50, pseudovirus neutralization [8]: 0.021 µg/mL
- IC50, pseudovirus neutralization [9]: 0.02 µg/mL
- IC50, pseudovirus neutralization [10]: 0.046 µg/mL
- IC50, pseudovirus neutralization [14]: 0.014 µg/mL
- IC50, pseudovirus neutralization [15]: 0.026 µg/mL
- IC50, pseudovirus neutralization [16]: 0.026 µg/mL
- IC50, pseudovirus neutralization [17]: 0.02 µg/mL
- IC50, pseudovirus neutralization [18]: 0.017 µg/mL
- IC50, pseudovirus neutralization [20]: 0.014 µg/mL
- IC50, pseudovirus neutralization [22]: 0.017 µg/mL
- IC50, pseudovirus neutralization [23]: 0.028 µg/mL
- IC50, pseudovirus neutralization [24]: 0.019 µg/mL
- IC50, pseudovirus neutralization [26]: 0.019 µg/mL
- IC50, pseudovirus neutralization [32]: 0.033 µg/mL
- IC50, pseudovirus neutralization [33]: 0.009 µg/mL
- IC50, pseudovirus neutralization [35]: 0.026 µg/mL

Substance: VRC01 (antibody)
- EC50 [37]: 0.7 µg/mL
- EC50 [38]: 0.6 µg/mL
- EC50 [67]: 1.6 µg/mL
- EC50 [68]: 1.1 µg/mL
- EC50 [41]: 0.5 µg/mL
- EC50 [45]: 1.3 µg/mL
- EC50 [50]: 0.9 µg/mL
- EC50 [53]: 0.456 µg/mL
- EC50 [54]: 0.9 µg/mL
- EC50 [69]: 25.4 µg/mL
- EC50 [55]: 0.4 µg/mL
- EC50 [70]: 0.5 µg/mL
- EC50 [57]: 0.348 µg/mL
- EC50 [58]: 9.4 µg/mL
- EC50 [71]: 0.4 µg/mL
- EC50 [72]: 0.2 µg/mL
- EC50 [73]: 0.4 µg/mL
- EC50 [61]: 0.7 µg/mL
- EC50 [74]: 1.62 µg/mL
- EC50 [75]: 1.4 µg/mL
- EC50 [76]: 0.2 µg/mL
- EC50 [65]: 0.6 µg/mL
- EC50 [66]: 0.327 µg/mL

— patent publication US20200165324A1
